{"source": "the supplement of paper PMC12764529", "key": {"[1]": {"test": "folding stability dG unfold (combined trypsin and chymotrypsin); higher = more stable", "procedure,_shortened": "(§1)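 Sequencing followed digestion of designed mini-proteins with trypsin and chymotrypsin, each at 11 concentrations in threefold dilutions together with a no-protease condition. The mini-proteins were under 80 residues, had no cysteine, sat in a PA-tagged cDNA display construct, and were kept only if AlphaFold2 dimer inter-PAE was above 15. From the counts, Bayesian fitting gave K50, and unfolding free energy was derived against a sequence-predicted unfolded-state K50 and a shared folded-state K50, per protease or combined.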"}, "[2]": {"test": "folding stability dG unfold from chymotrypsin proteolysis; higher = more stable", "procedure,_shortened": "as §1"}, "[3]": {"test": "folding stability dG unfold from trypsin proteolysis; higher = more stable", "procedure,_shortened": "as §1"}}, "note": "± gives the half width of the 95% confidence interval.", "data": [{"sequence": "SAGGSAGGSAGKEEIKIEITKVEPLEDGSYIAEVIATPKNGKKIPYTALIDPKTGKITIGSAGGSAGGSAGG [r11_31_TrMRF]", "values": [{"measurement": "folding stability dG unfold", "setting": "[1]", "value": "0.426 ± 0.087", "unit": "kcal/mol"}, {"measurement": "folding stability dG unfold", "setting": "[2]", "value": "0.18 ± 0.14", "unit": "kcal/mol"}, {"measurement": "folding stability dG unfold", "setting": "[3]", "value": "0.527 ± 0.11", "unit": "kcal/mol"}]}, {"sequence": "SAGGSAMGMRPVRREFTGSGMRITVEVVESTSIPTAEIRVLDPEGRLLRERRLPAEEVEREIARLLSAGGSA [r15_940_JUSTAS]", "values": [{"measurement": "folding stability dG unfold", "setting": "[1]", "value": "1.55 ± 0.096", "unit": "kcal/mol"}, {"measurement": "folding stability dG unfold", "setting": "[2]", "value": "1.58 ± 0.092", "unit": "kcal/mol"}, {"measurement": "folding stability dG unfold", "setting": "[3]", "value": "1.34 ± 0.069", "unit": "kcal/mol"}]}, {"sequence": "SMPLPFEATVTVPVRDEETGETYTVTVKVEAVNPAVPRPLPDGSIEYEPIPLETVLEIVEKAAEELAKALSA [r9_698_TrMRF]", "values": [{"measurement": "folding stability dG unfold", "setting": "[1]", "value": "1.56 ± 0.14", "unit": "kcal/mol"}, {"measurement": "folding stability dG unfold", "setting": "[2]", "value": "1.55 ± 0.058", "unit": "kcal/mol"}, {"measurement": "folding stability dG unfold", "setting": "[3]", "value": "1.27 ± 0.074", "unit": "kcal/mol"}]}, {"sequence": "SAMKITEITYDKETNTITITVEIKLPPGVKKIKLKLFIDGAEIEEITMEVDEETGTVRITLKIRIPKDASAG [r14_244_TrROS_Hall]", "values": [{"measurement": "folding stability dG unfold", "setting": "[1]", "value": "> 6", "unit": "kcal/mol"}, {"measurement": "folding stability dG unfold", "setting": "[2]", "value": "6.06 ± 0.78", "unit": "kcal/mol"}, {"measurement": "folding stability dG unfold", "setting": "[3]", "value": "4.9 ± 0.88", "unit": "kcal/mol"}]}, {"sequence": "SAGMKPGEVLTVEDIPPGALLRNPKGESLGPVVEVEVRALEDSVEAVVTFPDGSKATVTFPADDIVLDPSAG [r5_850_TrMRF]", "values": [{"measurement": "folding stability dG unfold", "setting": "[1]", "value": "0.987 ± 0.33", "unit": "kcal/mol"}, {"measurement": "folding stability dG unfold", "setting": "[2]", "value": "0.991 ± 0.21", "unit": "kcal/mol"}, {"measurement": "folding stability dG unfold", "setting": "[3]", "value": "1.05 ± 0.19", "unit": "kcal/mol"}]}, {"sequence": "SAGGSAGGSSPVRMVATIPLPDGTTITVEAEIVRLPDGTILIKTPSGEIIEVPPDVPVEFFPESAGGSAGGS [r20_227_JUSTAS]", "values": [{"measurement": "folding stability dG unfold", "setting": "[1]", "value": "2.23 ± 0.054", "unit": "kcal/mol"}, {"measurement": "folding stability dG unfold", "setting": "[2]", "value": "2.45 ± 0.052", "unit": "kcal/mol"}, {"measurement": "folding stability dG unfold", "setting": "[3]", "value": "1.78 ± 0.057", "unit": "kcal/mol"}]}, {"sequence": "SAGGSAGGSAGGGMSTAVLKIDDKWVPVRIYPDSVVIEYPDGSTKTISLSEIPENLIELPSAGGSAGGSAGG [r7_748_JUSTAS]", "values": [{"measurement": "folding stability dG unfold", "setting": "[1]", "value": "1.43 ± 0.15", "unit": "kcal/mol"}, {"measurement": "folding stability dG unfold", "setting": "[2]", "value": "0.547 ± 0.07", "unit": "kcal/mol"}, {"measurement": "folding stability dG unfold", "setting": "[3]", "value": "2.2 ± 0.12", "unit": "kcal/mol"}]}, {"sequence": "SAGGEEELKKNPDLIVIKITIRNKETGEEIEELEIVLSKEELEELLETLRKLLPPGWEIVKVEIRKLPSAGG [r13_849_TrROS_Hall]", "values": [{"measurement": "folding stability dG unfold", "setting": "[1]", "value": "4 ± 0.3", "unit": "kcal/mol"}, {"measurement": "folding stability dG unfold", "setting": "[2]", "value": "3.02 ± 0.14", "unit": "kcal/mol"}, {"measurement": "folding stability dG unfold", "setting": "[3]", "value": "4.11 ± 0.24", "unit": "kcal/mol"}]}, {"sequence": "SAGGSAGGSAGGSKNKKIKLGPEVKIKVKIEAKLEGGYSSENGLPEFKLDVKLEIGEVESAGGSAGGSAGGS [r10_877_TrMRF]", "values": [{"measurement": "folding stability dG unfold", "setting": "[1]", "value": "0.94 ± 0.26", "unit": "kcal/mol"}, {"measurement": "folding stability dG unfold", "setting": "[2]", "value": "1.09 ± 0.13", "unit": "kcal/mol"}, {"measurement": "folding stability dG unfold", "setting": "[3]", "value": "0.727 ± 0.068", "unit": "kcal/mol"}]}, {"sequence": "SAGGMVTVTDPNGVKHEYKLKVKITFEKPDGKPVTVEIEFDNVTVEDIVKIAKEIESKGYKLVSIEISSAGG [r13_227_TrMRF]", "values": [{"measurement": "folding stability dG unfold", "setting": "[1]", "value": "4.74 ± 0.22", "unit": "kcal/mol"}, {"measurement": "folding stability dG unfold", "setting": "[2]", "value": "4.91 ± 0.15", "unit": "kcal/mol"}, {"measurement": "folding stability dG unfold", "setting": "[3]", "value": "3.73 ± 0.34", "unit": "kcal/mol"}]}, {"sequence": "SAGGGSMKTIELTVTNPATGETVTVTLELDPSVSEEEVEARIKETEEAVEKELLAPEPPLAPTPARASAGGS [r16_191_JUSTAS]", "values": [{"measurement": "folding stability dG unfold", "setting": "[1]", "value": "0.765 ± 0.062", "unit": "kcal/mol"}, {"measurement": "folding stability dG unfold", "setting": "[2]", "value": "1.22 ± 0.023", "unit": "kcal/mol"}, {"measurement": "folding stability dG unfold", "setting": "[3]", "value": "-0.465 ± 0.096", "unit": "kcal/mol"}]}, {"sequence": "SAGGMYILELTFTTPTSTTPRTVEVPPGNYEEAAKALREELAAEAGAADLEVTFTVYKVAPDGTLVEESAGG [r13_877_JUSTAS]", "values": [{"measurement": "folding stability dG unfold", "setting": "[1]", "value": "2 ± 0.19", "unit": "kcal/mol"}, {"measurement": "folding stability dG unfold", "setting": "[2]", "value": "2.51 ± 0.097", "unit": "kcal/mol"}, {"measurement": "folding stability dG unfold", "setting": "[3]", "value": "1.16 ± 0.049", "unit": "kcal/mol"}]}, {"sequence": "SAGGSAGGSAGGSMVTLTVEKTFTSLLKTPESELIPVTSTVTEEVTIPESEATEELIKELSAGGSAGGSAGG [r7_777_JUSTAS]", "values": [{"measurement": "folding stability dG unfold", "setting": "[1]", "value": "0.399 ± 0.2", "unit": "kcal/mol"}, {"measurement": "folding stability dG unfold", "setting": "[2]", "value": "-0.0189 ± 0.23", "unit": "kcal/mol"}, {"measurement": "folding stability dG unfold", "setting": "[3]", "value": "0.388 ± 0.054", "unit": "kcal/mol"}]}, {"sequence": "SAGGKRRTINFDIEGMTPEKFVHMARMAIRNLPDPEQVTITINMRNPMWRRWFIELAKELPGIEIEFMSAGG [r13_718_TrROS]", "values": [{"measurement": "folding stability dG unfold", "setting": "[1]", "value": "3.19 ± 0.15", "unit": "kcal/mol"}, {"measurement": "folding stability dG unfold", "setting": "[2]", "value": "3.43 ± 0.044", "unit": "kcal/mol"}, {"measurement": "folding stability dG unfold", "setting": "[3]", "value": "2.52 ± 0.061", "unit": "kcal/mol"}]}, {"sequence": "SAGGMVFKTKDGYLVRIEVFNKETGEKTEILVPEENIEELLKALESKPGVTEVKVEIYKLKDGKPEKLSAGG [r13_914_TrROS_Hall]", "values": [{"measurement": "folding stability dG unfold", "setting": "[1]", "value": "1.21 ± 0.095", "unit": "kcal/mol"}, {"measurement": "folding stability dG unfold", "setting": "[2]", "value": "1.38 ± 0.09", "unit": "kcal/mol"}, {"measurement": "folding stability dG unfold", "setting": "[3]", "value": "0.862 ± 0.026", "unit": "kcal/mol"}]}, {"sequence": "SAMKIKVPPGAEIITEDGEKIEPGQEVEVTDIEFDEETGEVHITVKIKNPETGEEIEEKVTIRFPKEEESAG [r14_258_TrROS_Hall]", "values": [{"measurement": "folding stability dG unfold", "setting": "[1]", "value": "1.09 ± 0.15", "unit": "kcal/mol"}, {"measurement": "folding stability dG unfold", "setting": "[2]", "value": "0.977 ± 0.042", "unit": "kcal/mol"}, {"measurement": "folding stability dG unfold", "setting": "[3]", "value": "1.29 ± 0.11", "unit": "kcal/mol"}]}, {"sequence": "SAGGSKWRMYEITLELGDKPVKITVYYMDGNYSVAIKFPPGRKVDIPFDGPMSPEDAAKKALEALGSAGGSA [r2_92_TrROS]", "values": [{"measurement": "folding stability dG unfold", "setting": "[1]", "value": "3.24 ± 0.095", "unit": "kcal/mol"}, {"measurement": "folding stability dG unfold", "setting": "[2]", "value": "3.579 ± 0.026", "unit": "kcal/mol"}, {"measurement": "folding stability dG unfold", "setting": "[3]", "value": "2.34 ± 0.056", "unit": "kcal/mol"}]}, {"sequence": "SAPLKIDLDIEPIPPGDKVRFNARITYPDGHPIRIPFEIYVPPDEIVIKFPIQDPKNGEPIAPLTFVIKSAG [r14_670_TrROS]", "values": [{"measurement": "folding stability dG unfold", "setting": "[1]", "value": "1.67 ± 0.19", "unit": "kcal/mol"}, {"measurement": "folding stability dG unfold", "setting": "[2]", "value": "1.97 ± 0.2", "unit": "kcal/mol"}, {"measurement": "folding stability dG unfold", "setting": "[3]", "value": "1.53 ± 0.046", "unit": "kcal/mol"}]}, {"sequence": "SVEKARERLEKLGFKLVSVDPLEDGSVVLTFEFPDNKVVVLVDEDGNARIVAYNPSDGKFSEATFNLDDLSA [r9_2_TrMRF]", "values": [{"measurement": "folding stability dG unfold", "setting": "[1]", "value": "2.7 ± 0.038", "unit": "kcal/mol"}, {"measurement": "folding stability dG unfold", "setting": "[2]", "value": "2.577 ± 0.024", "unit": "kcal/mol"}, {"measurement": "folding stability dG unfold", "setting": "[3]", "value": "2.84 ± 0.066", "unit": "kcal/mol"}]}, {"sequence": "SAGPEKPFDIVIVEVKSMEVHEDPNGRRSVRIPVVARIPGGYYIRFEIWINPPTGNVSIDWEIVPLDDSAGG [r19_320_TrROS]", "values": [{"measurement": "folding stability dG unfold", "setting": "[1]", "value": "3.82 ± 0.14", "unit": "kcal/mol"}, {"measurement": "folding stability dG unfold", "setting": "[2]", "value": "4.21 ± 0.12", "unit": "kcal/mol"}, {"measurement": "folding stability dG unfold", "setting": "[3]", "value": "2.73 ± 0.047", "unit": "kcal/mol"}]}, {"sequence": "SAGGSAGGSMTIEEIKKLAEELGIEKVEIEKVKDGYYKIKIYNKKTGKKIEIIIKVNKDGKIVSAGGSAGGS [r12_170_TrROS_Hall]", "values": [{"measurement": "folding stability dG unfold", "setting": "[1]", "value": "3.61 ± 0.26", "unit": "kcal/mol"}, {"measurement": "folding stability dG unfold", "setting": "[2]", "value": "3.9 ± 0.091", "unit": "kcal/mol"}, {"measurement": "folding stability dG unfold", "setting": "[3]", "value": "2.27 ± 0.17", "unit": "kcal/mol"}]}]}
